Reference: patent US20260265379A1

B1: bsAb025 (bispecific antibody)
heavy: QVQLVQSGVEVKKPGASVKVSCKASGYTFTNYYMYWVRQAPGQGLEWMGGINPSNGGTNFNEKFKNRVTLTTDSSTTTAYMELKSLQFDDTAVYYCARRDYRFDMGFDYWGQGTTVTVSSASTKGPSVFPLAPSSKSTSGGTAALGCLVKDYFPEPVTVSWNSGALTSGVHTFPAVLQSSGLYSLSSVVTVPSSSLGTQTYICNVNHKPSNTKVDKKVEPKSCDKTHTGGSSGSGSGSTGTSSSGTGTSAGTTGTSASTSGSGSGGGGGSGGGGSAGGEIVLTQSPATLSLSPGERATLSCRASKGVSTSGYSYLHWYQQKPGQAPRLLIYLASYLESGVPARFSGSGSGTDFTLTISSLEPEDFAVYYCQHSRDLPLTFGGGTKVEIKRTVAAPSVFIFPPSDEQLKSGTASVVCLLNNFYPREAKVQWKVDNALQSGNSQESVTEQDSKDSTYSLSSTLTLSKADYEKHKVYACEVTHQGLSSPVTKSFNRGECGGGGSGGGGSGGGGSGGGGSQVQLVQSGAEVKKPGASVKLSCKASGYIFTRYYMYWVKQRPGQGLEWIGEINPNNGGTKFNEKFKNRATLTVDKSISTAYMELSRLRSDDTAVYYCSREDDYDGTPFAMDYWGQGTLVTVSSASTKGPSVFPLAPSSKSTSGGTAALGCLVKDYFPEPVTVSWNSGALTSGVHTFPAVLQSSGLYSLSSVVTVPSSSLGTQTYICNVNHKPSNTKVDKRVEPKSCDKTHTCPPCPAPEFEGGPSVFLFPPKPKDTLMISRTPEVTCVVVDVSHEDPEVKFNWYVDGVEVHNAKTKPREEQYNSTYRVVSVLTVLHQDWLNGKEYKCKVSNKALPASIEKTISKAKGQPREPQVYTLPPSREEMTKNQVSLTCLVKGFYPSDIAVEWESNGQPENNYKTTPPVLDSDGSFFLYSKLTVDKSRWQQGNVFSCSVMHEALHNHYTQKSLSLSPG
light: not shown
B2: bsAb070 (bispecific antibody, not shown: small tags and cut ends; a dimerising Fc or GST)
heavy 1: EVQLVESGGGLVQPGGSLRLSCAASGFTFSRYWMSWVRQAPGKGLEWVANIKQDGSEKYYVDSVKGRFTISRDNAKNSLYLQMNSLRAEDTAVYYCAREGGWFGELAFDYWGQGTLVTVSS
heavy 2: QVQLVQSGAEVKKPGASVKLSCKASGYIFTRYYMYWVKQRPGQGLEWIGEINPNNGGTKFNEKFKNRATLTVDKSISTAYMELSRLRSDDTAVYYCSREDDYDGTPFAMDYWGQGTLVTVSSGGGGSGGGGSGGGGSGGGGSDIQMTQSPSSLSASVGDRVTITCHASQNINVWLSWYQQKPGKAPKLLIYKASNLHTGVPSRFTGSGSGTDFTFTISSLQPEDIATYYCQQGQTYPYTFGQGTKLEIKGGGGSGGGGSGGGGSGGGGS
light: EIVLTQSPGTLSLSPGERATLSCRASQRVSSSYLAWYQQKPGQAPRLLIYDASSRATGIPDRFSGSGSGTDFTLTISRLEPEDFAVYYCQQYGSLPWTFGQGTKVEIKRTVAAPSVFIFPPSDEQLKSGTASVVCLLNNFYPREAKVQWKVDNALQSGNSQESVTEQDSKDSTYSLSSTLTLSKADYEKHKVYACEVTHQGLSSPVTKSFNRGECGGGGSGGGGSGGGGSGGGGSDIQMTQSPSSLSASVGDRVTITCHASQNINVWLSWYQQKPGKAPKLLIYKASNLHTGVPSRFTGSGSGTDFTFTISSLQPEDIATYYCQQGQTYPYTFGQGTKLEIKGGGGSGGGGSGGGGSGGGGSQVQLVQSGAEVKKPGASVKLSCKASGYIFTRYYMYWVKQRPGQGLEWIGEINPNNGGTKFNEKFKNRATLTVDKSISTAYMELSRLRSDDTAVYYCSREDDYDGTPFAMDYWGQGTLVTVSS
B3: bsAb026 (bispecific antibody)
heavy: QVQLVQSGAEVKKPGASVKLSCKASGYIFTRYYMYWVKQRPGQGLEWIGEINPNNGGTKFNEKFKNRATLTVDKSISTAYMELSRLRSDDTAVYYCSREDDYDGTPFAMDYWGQGTLVTVSSASTKGPSVFPLAPSSKSTSGGTAALGCLVKDYFPEPVTVSWNSGALTSGVHTFPAVLQSSGLYSLSSVVTVPSSSLGTQTYICNVNHKPSNTKVDKRVEPKSCDKTHTCPPCPAPEFEGGPSVFLFPPKPKDTLMISRTPEVTCVVVDVSHEDPEVKFNWYVDGVEVHNAKTKPREEQYNSTYRVVSVLTVLHQDWLNGKEYKCKVSNKALPASIEKTISKAKGQPREPQVYTLPPSREEMTKNQVSLTCLVKGFYPSDIAVEWESNGQPENNYKTTPPVLDSDGSFFLYSKLTVDKSRWQQGNVFSCSVMHEALHNHYTQKSLSLSPGGGGGSGGGGSGGGGSGGGGSQVQLVQSGVEVKKPGASVKVSCKASGYTFTNYYMYWVRQAPGQGLEWMGGINPSNGGTNFNEKFKNRVTLTTDSSTTTAYMELKSLQFDDTAVYYCARRDYRFDMGFDYWGQGTTVTVSSASTKGPSVFPLAPSSKSTSGGTAALGCLVKDYFPEPVTVSWNSGALTSGVHTFPAVLQSSGLYSLSSVVTVPSSSLGTQTYICNVNHKPSNTKVDKKVEPKSCDKTHTGGSSGSGSGSTGTSSSGTGTSAGTTGTSASTSGSGSGGGGGSGGGGSAGGEIVLTQSPATLSLSPGERATLSCRASKGVSTSGYSYLHWYQQKPGQAPRLLIYLASYLESGVPARFSGSGSGTDFTLTISSLEPEDFAVYYCQHSRDLPLTFGGGTKVEIKRTVAAPSVFIFPPSDEQLKSGTASVVCLLNNFYPREAKVQWKVDNALQSGNSQESVTEQDSKDSTYSLSSTLTLSKADYEKHKVYACEVTHQGLSSPVTKSFNRGEC
light: not shown
B4: bsAb010 (bispecific antibody)
heavy: QVQLVQSGAEVKKPGASVKLSCKASGYIFTRYYMYWVKQRPGQGLEWIGEINPNNGGTKFNEKFKNRATLTVDKSISTAYMELSRLRSDDTAVYYCSREDDYDGTPFAMDYWGQGTLVTVSSASTKGPSVFPLAPSSKSTSGGTAALGCLVKDYFPEPVTVSWNSGALTSGVHTFPAVLQSSGLYSLSSVVTVPSSSLGTQTYICNVNHKPSNTKVDKRVEPKSCDKTHTCPPCPAPEFEGGPSVFLFPPKPKDTLMISRTPEVTCVVVDVSHEDPEVKFNWYVDGVEVHNAKTKPREEQYNSTYRVVSVLTVLHQDWLNGKEYKCKVSNKALPASIEKTISKAKGQPREPQVYTLPPSREEMTKNQVSLTCLVKGFYPSDIAVEWESNGQPENNYKTTPPVLDSDGSFFLYSKLTVDKSRWQQGNVFSCSVMHEALHNHYTQKSLSLSPG
light: not shown
B5: bsAb014 (bispecific antibody)
heavy: B4 heavy
light: not shown
B6: ICT01 (antibody, V domains shown)
VH: QVQLVQSGAEVKKPGASVKLSCKASGYIFTRYYMYWVKQRPGQGLEWIGEINPNNGGTKFNEKFKNRATLTVDKSISTAYMELSRLRSDDTAVYYCSREDDYDGTPFAMDYWGQGTLVTVSS
VL: DIQMTQSPSSLSASVGDRVTITCHASQNINVWLSWYQQKPGKAPKLLIYKASNLHTGVPSRFTGSGSGTDFTFTISSLQPEDIATYYCQQGQTYPYTFGQGTKLEIK
B7: bsAb033 (bispecific antibody, not shown: small tags and cut ends)
heavy (part 1 of 2): B6 VH
heavy (part 2 of 2): GGGGSGGGGSGGGGSGGGGSQVQLVQSGVEVKKPGASVKVSCKASGYTFTNYYMYWVRQAPGQGLEWMGGINPSNGGTNFNEKFKNRVTLTTDSSTTTAYMELKSLQFDDTAVYYCARRDYRFDMGFDYWGQGTTVTVSSGGGGSGGGGSGGGGSGGGGSEIVLTQSPATLSLSPGERATLSCRASKGVSTSGYSYLHWYQQKPGQAPRLLIYLASYLESGVPARFSGSGSGTDFTLTISSLEPEDFAVYYCQHSRDLPLTFGGGTKVEIK
heavy: B6 VH
light: not shown
B8: bsAb022 (bispecific antibody)
heavy: QVQLVQSGVEVKKPGASVKVSCKASGYTFTNYYMYWVRQAPGQGLEWMGGINPSNGGTNFNEKFKNRVTLTTDSSTTTAYMELKSLQFDDTAVYYCARRDYRFDMGFDYWGQGTTVTVSSGGGGSGGGGSGGGGSGGGGSEIVLTQSPATLSLSPGERATLSCRASKGVSTSGYSYLHWYQQKPGQAPRLLIYLASYLESGVPARFSGSGSGTDFTLTISSLEPEDFAVYYCQHSRDLPLTFGGGTKVEIKGGGGSGGGGSGGGGSGGGGSQVQLVQSGAEVKKPGASVKLSCKASGYIFTRYYMYWVKQRPGQGLEWIGEINPNNGGTKFNEKFKNRATLTVDKSISTAYMELSRLRSDDTAVYYCSREDDYDGTPFAMDYWGQGTLVTVSSASTKGPSVFPLAPSSKSTSGGTAALGCLVKDYFPEPVTVSWNSGALTSGVHTFPAVLQSSGLYSLSSVVTVPSSSLGTQTYICNVNHKPSNTKVDKRVEPKSCDKTHTCPPCPAPEFEGGPSVFLFPPKPKDTLMISRTPEVTCVVVDVSHEDPEVKFNWYVDGVEVHNAKTKPREEQYNSTYRVVSVLTVLHQDWLNGKEYKCKVSNKALPASIEKTISKAKGQPREPQVYTLPPSREEMTKNQVSLTCLVKGFYPSDIAVEWESNGQPENNYKTTPPVLDSDGSFFLYSKLTVDKSRWQQGNVFSCSVMHEALHNHYTQKSLSLSPG
light: not shown
B9: bsAb018 (bispecific antibody)
heavy: EIVLTQSPATLSLSPGERATLSCRASKGVSTSGYSYLHWYQQKPGQAPRLLIYLASYLESGVPARFSGSGSGTDFTLTISSLEPEDFAVYYCQHSRDLPLTFGGGTKVEIKGGGGSGGGGSGGGGSGGGGSQVQLVQSGVEVKKPGASVKVSCKASGYTFTNYYMYWVRQAPGQGLEWMGGINPSNGGTNFNEKFKNRVTLTTDSSTTTAYMELKSLQFDDTAVYYCARRDYRFDMGFDYWGQGTTVTVSSGGGGSGGGGSGGGGSGGGGSQVQLVQSGAEVKKPGASVKLSCKASGYIFTRYYMYWVKQRPGQGLEWIGEINPNNGGTKFNEKFKNRATLTVDKSISTAYMELSRLRSDDTAVYYCSREDDYDGTPFAMDYWGQGTLVTVSSASTKGPSVFPLAPSSKSTSGGTAALGCLVKDYFPEPVTVSWNSGALTSGVHTFPAVLQSSGLYSLSSVVTVPSSSLGTQTYICNVNHKPSNTKVDKRVEPKSCDKTHTCPPCPAPEFEGGPSVFLFPPKPKDTLMISRTPEVTCVVVDVSHEDPEVKFNWYVDGVEVHNAKTKPREEQYNSTYRVVSVLTVLHQDWLNGKEYKCKVSNKALPASIEKTISKAKGQPREPQVYTLPPSREEMTKNQVSLTCLVKGFYPSDIAVEWESNGQPENNYKTTPPVLDSDGSFFLYSKLTVDKSRWQQGNVFSCSVMHEALHNHYTQKSLSLSPG
light: not shown

Each binder was assayed against BTN3A expressed at the cell surface (human), O00481 (assay: cell-based or functional assay).
Sequence of BTN3A expressed at the cell surface (human), O00481 (O00481 30-513): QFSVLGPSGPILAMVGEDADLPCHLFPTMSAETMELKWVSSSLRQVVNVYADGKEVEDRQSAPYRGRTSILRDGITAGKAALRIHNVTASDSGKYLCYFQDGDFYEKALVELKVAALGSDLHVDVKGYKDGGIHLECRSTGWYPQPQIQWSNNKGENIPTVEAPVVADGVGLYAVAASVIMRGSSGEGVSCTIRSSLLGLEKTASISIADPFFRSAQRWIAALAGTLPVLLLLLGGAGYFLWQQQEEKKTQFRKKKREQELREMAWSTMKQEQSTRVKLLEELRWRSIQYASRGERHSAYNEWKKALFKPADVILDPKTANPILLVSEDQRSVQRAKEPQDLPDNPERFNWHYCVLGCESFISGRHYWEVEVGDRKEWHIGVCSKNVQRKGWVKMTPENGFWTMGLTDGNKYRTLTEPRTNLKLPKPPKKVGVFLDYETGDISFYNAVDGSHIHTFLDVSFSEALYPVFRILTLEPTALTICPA

| Jurkat-Vy9Vo2 TCR MOP activation at 0.5 nM (fold-change to medium) | Jurkat-Vy9Vo2 TCR MOP activation at 5 nM (fold-change to medium) | dose at which Jurkat-Vγ9Vδ2 TCR MOP activation was evident | increase in CD107ab expression on Vγ9Vδ2 T cells co-cultured with SKOV3 cells, 0.1 nM | Binder |
| --- | --- | --- | --- | --- |
| 1 | 1.2 | – | – | B1 |
| 1.5 | 1.3 | – | – | B2 |
| 2.9 | 1.4 | – | – | B3 |
| 5.3 | 4.8 | – | – | B4 |
| 6.4 | 4.6 | – | – | B5 |
| 12.5 | 11.7 | 0.05 nM | 1.9 fold | B6 |
| 7.8 | 7.1 | – | – | B7 |
| 1.3 | 1.4 | – | – | B8 |
| 1.1 | 1.7 | – | – | B9 |
